The text below walks through data of patent US20260167699A1 (Chugai, published 2026).

For the experiment, the target named is T1, FcγRIIIa (human, UniProt P08637 17-208).
T1 construct: extracellular domain; also called 3a; FcγRIIIa extracellular domain
Briefly: SPR (Biacore).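 Further: antibody variants captured on an SPR sensor chip, with FcγRIIIa passed over as analyte in HBS-EP+ buffer at 25 °C.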

T1 sequence (P08637 other isoform, or with tags, fused parts or gaps): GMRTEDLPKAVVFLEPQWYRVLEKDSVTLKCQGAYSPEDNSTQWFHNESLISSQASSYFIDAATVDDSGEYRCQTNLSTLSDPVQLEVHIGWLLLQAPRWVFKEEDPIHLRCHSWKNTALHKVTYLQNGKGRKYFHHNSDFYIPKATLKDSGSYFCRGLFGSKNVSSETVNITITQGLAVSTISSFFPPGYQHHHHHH

B1: GpH7-A5/GpH7-B3 variant L235_03V/GpL16-k0 (antibody, human IgG1, kappa)
heavy 1: not shown
heavy 2: not shown
light: DIVMTQSPLSLPVTPGEPASISCQASESLVHSNRNTYLHWYLQKPGQSPQLLIYKVSNRFSGVPDRFSGSGSGTDFTLKISRVEAEDVGVYYCSQNTHVPPTFGQGTKVEIERTVAAPSVFIFPPSDEQLKSGTASVVCLLNNFYPREAKVQWKVDNALQSGNSQESVTEQDSKDSTYSLSSTLTLSKADYEKHKVYACEVTHQGLSSPVTKSFNRGEC
notes: copies: 1 + 1 + 2
B1: the “He/Con 3a” value was 94.6 % of GpH7-A5/GpH7-B3/GpL16-k0.

B2: GpH7-A5/GpH7-B3 variant L328_10E/GpL16-k0 (antibody, human IgG1, kappa)
heavy 1: not shown
heavy 2: not shown
light: B1 light
notes: copies: 1 + 1 + 2
Regarding B2, the “He/Con 3a” value was 54.9 % of GpH7-A5/GpH7-B3/GpL16-k0.

B3: GpH7-A5/GpH7-B3 variant L328_04F/GpL16-k0 (antibody, human IgG1, kappa)
heavy 1: not shown
heavy 2: not shown
light: B1 light
notes: copies: 1 + 1 + 2
As for B3, the “He/Con 3a” value was 81.5 % of GpH7-A5/GpH7-B3/GpL16-k0.

B4: GpH7-A5/GpH7-B3 variant L235_04F/GpL16-k0 (antibody, human IgG1, kappa)
heavy 1: not shown
heavy 2: not shown
light: B1 light
notes: copies: 1 + 1 + 2
On to B4, for which the “He/Con 3a” value is 76.4 % of GpH7-A5/GpH7-B3/GpL16-k0.

B5: GpH7-A5/GpH7-B3 variant L328_13S/GpL16-k0 (antibody, human IgG1, kappa)
heavy 1: not shown
heavy 2: not shown
light: B1 light
notes: copies: 1 + 1 + 2
As for B5, the “He/Con 3a” value is 73.7 % of GpH7-A5/GpH7-B3/GpL16-k0.

B6: GpH7-A5/GpH7-B3 variant L235_13S/GpL16-k0 (antibody, human IgG1, kappa)
heavy 1: not shown
heavy 2: not shown
light: B1 light
notes: copies: 1 + 1 + 2
Regarding B6, the “He/Con 3a” value is 67.2 % of GpH7-A5/GpH7-B3/GpL16-k0.

B7: GpH7-A5/GpH7-B3 variant L235_09D/GpL16-k0 (antibody, human IgG1, kappa)
heavy 1: not shown
heavy 2: not shown
light: B1 light
notes: copies: 1 + 1 + 2
As to B7, the “He/Con 3a” value is 88.5 % of GpH7-A5/GpH7-B3/GpL16-k0.

B8: GpH7-A5/GpH7-B3 variant L235_05P/GpL16-k0 (antibody, human IgG1, kappa)
heavy 1: not shown
heavy 2: not shown
light: B1 light
notes: copies: 1 + 1 + 2
With B8, the “He/Con 3a” value is 68.6 % of GpH7-A5/GpH7-B3/GpL16-k0.

B9: GpH7-A5/GpH7-B3 variant L235_07I/GpL16-k0 (antibody, human IgG1, kappa)
heavy 1: not shown
heavy 2: not shown
light: B1 light
notes: copies: 1 + 1 + 2
For the molecule B9, the “He/Con 3a” value was 92.8 % of GpH7-A5/GpH7-B3/GpL16-k0.

B10: GpH7-A5/GpH7-B3 variant L328_02A/GpL16-k0 (antibody, human IgG1, kappa)
heavy 1: not shown
heavy 2: not shown
light: B1 light
notes: copies: 1 + 1 + 2
In the case of B10, the “He/Con 3a” value is 81.3 % of GpH7-A5/GpH7-B3/GpL16-k0.

B11: GpH7-A5/GpH7-B3 variant L235_16H/GpL16-k0 (antibody, human IgG1, kappa)
heavy 1: not shown
heavy 2: not shown
light: B1 light
notes: copies: 1 + 1 + 2
Turning to B11, the “He/Con 3a” value was 57.1 % of GpH7-A5/GpH7-B3/GpL16-k0.

B12: GpH7-A5/GpH7-B3 variant L235_06M/GpL16-k0 (antibody, human IgG1, kappa)
heavy 1: not shown
heavy 2: not shown
light: B1 light
notes: copies: 1 + 1 + 2
As for B12, the “He/Con 3a” value is 75.6 % of GpH7-A5/GpH7-B3/GpL16-k0.

B13: GpH7-A5/GpH7-B3 variant L235_14T/GpL16-k0 (antibody, human IgG1, kappa)
heavy 1: not shown
heavy 2: not shown
light: B1 light
notes: copies: 1 + 1 + 2
B13: the “He/Con 3a” value was 73.2 % of GpH7-A5/GpH7-B3/GpL16-k0.

B14: GpH7-A5/GpH7-B3 variant L328_03V/GpL16-k0 (antibody, human IgG1, kappa)
heavy 1: not shown
heavy 2: not shown
light: B1 light
notes: copies: 1 + 1 + 2
As to B14, the “He/Con 3a” value was 80.9 % of GpH7-A5/GpH7-B3/GpL16-k0.

B15: GpH7-A5/GpH7-B3 variant L328_07I/GpL16-k0 (antibody, human IgG1, kappa)
heavy 1: not shown
heavy 2: not shown
light: B1 light
notes: copies: 1 + 1 + 2
Turning to B15, the “He/Con 3a” value is 86.4 % of GpH7-A5/GpH7-B3/GpL16-k0.

B16: GpH7-A5/GpH7-B3 variant L235_10E/GpL16-k0 (antibody, human IgG1, kappa)
heavy 1: not shown
heavy 2: not shown
light: B1 light
notes: copies: 1 + 1 + 2
Regarding B16, the “He/Con 3a” value was 85.6 % of GpH7-A5/GpH7-B3/GpL16-k0.

B17: GpH7-A5/GpH7-B3 variant L235_19Q/GpL16-k0 (antibody, human IgG1, kappa)
heavy 1: not shown
heavy 2: not shown
light: B1 light
notes: copies: 1 + 1 + 2
Turning to B17, the “He/Con 3a” value was 68.1 % of GpH7-A5/GpH7-B3/GpL16-k0.

B18: GpH7-A5/GpH7-B3 variant L235_20W/GpL16-k0 (antibody, human IgG1, kappa)
heavy 1: not shown
heavy 2: not shown
light: B1 light
notes: copies: 1 + 1 + 2
As to B18, the “He/Con 3a” value is 73.8 % of GpH7-A5/GpH7-B3/GpL16-k0.

B19: GpH7-A5/GpH7-B3 variant L235_18N/GpL16-k0 (antibody, human IgG1, kappa)
heavy 1: not shown
heavy 2: not shown
light: B1 light
notes: copies: 1 + 1 + 2
B19: the “He/Con 3a” value was 65 % of GpH7-A5/GpH7-B3/GpL16-k0.

B20: GpH7-A5/GpH7-B3 variant L328_06M/GpL16-k0 (antibody, human IgG1, kappa)
heavy 1: not shown
heavy 2: not shown
light: B1 light
notes: copies: 1 + 1 + 2
Regarding B20, the “He/Con 3a” value is 80.8 % of GpH7-A5/GpH7-B3/GpL16-k0.

B21: GpH7-A5/GpH7-B3 variant L235_15Y/GpL16-k0 (antibody, human IgG1, kappa)
heavy 1: not shown
heavy 2: not shown
light: B1 light
notes: copies: 1 + 1 + 2
As for B21, the “He/Con 3a” value was 77.8 % of GpH7-A5/GpH7-B3/GpL16-k0.
